Consider two substances from patent US20170128544A1.

In this assay the target is Bb, the active site-bearing fragment of Factor B (human) (UniProt P00751). In words: surface plasmon resonance, decay-dissociation of the convertase. Background: SPR reads the build-up and loss of mass on a sensor chip optically.
Chain of Bb, the active site-bearing fragment of Factor B (human) (P00751 260-764 limits assumed): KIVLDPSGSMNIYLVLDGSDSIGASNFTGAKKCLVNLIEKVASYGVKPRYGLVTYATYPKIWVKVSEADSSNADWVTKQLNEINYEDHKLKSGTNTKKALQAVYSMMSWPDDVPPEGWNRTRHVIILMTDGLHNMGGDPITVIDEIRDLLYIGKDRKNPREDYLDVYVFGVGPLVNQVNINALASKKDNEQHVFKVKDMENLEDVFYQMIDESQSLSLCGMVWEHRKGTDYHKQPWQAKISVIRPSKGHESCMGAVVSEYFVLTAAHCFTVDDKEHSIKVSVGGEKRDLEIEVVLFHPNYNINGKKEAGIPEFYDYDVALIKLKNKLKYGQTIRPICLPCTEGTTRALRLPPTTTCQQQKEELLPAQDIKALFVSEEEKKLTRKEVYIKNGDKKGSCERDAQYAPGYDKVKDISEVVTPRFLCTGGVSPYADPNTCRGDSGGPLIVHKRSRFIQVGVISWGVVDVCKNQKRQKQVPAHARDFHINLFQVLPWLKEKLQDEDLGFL

With “cobra venom factor (CVF), natural (from UniProt Q91132 23-649; Q91132 733-984; Q91132 1264-1642)”, the Half-life at 25° C. (hrs) of the spontaneous decay-dissociation was determined as 19.2 h.
The substance “humanized cobra venom factor (hCVF) protein HC3-1550b (from UniProt P01024 23-1549; Q91132 1529-1642)” came in with a Half-life at 25° C. (hrs) of the spontaneous decay-dissociation of 2 h.
